Experimental data published in patent publication US20240277803A1, “NME INHIBITORS AND METHODS OF USING NME INHIBITORS” (Minerva Biotechnologies Corporation, priority 2013, published 2024).
Read-outs that look alike come from different tables or passages of the source.

What was measured:
human stem cells = assay: human stem cell culture in NME1 dimers or hexamers (FIG. 17D-G); assay type: cell-based
Source text: (§1) By contrast, NME1 is roughly half the molecular weight of NME7 (˜17 kDa) and has only one NDPK domain. NME1 acts as a growth factor that promotes growth and inhibits differentiation only when it is a dimer. At higher concentrations, NME1 can form hexamers. […] Thus, NME1, which is expressed later in embryogenesis, has the ability to turn itself off, thus limiting self-replication, while NME7 cannot. Wild type (wt) NME1 exists primarily as a hexamer at measurable concentrations. Mutant NME1 proteins, such as S120G that form stable dimer populations have been isolated from cancers and thus are continuously activating the MUC1* receptor. We made recombinant NME1-wt, and the S120G mutant. By varying refolding protocols we were able to stabilize populations that were essentially 100% hexamer or 100% dimer. In addition we isolated populations of NME1-S120G that were a mixture of dimer, tetramer and hexamer. […] In nature, when the concentration of stem cells reaches critical mass and their secretions of NME1 reaches the concentration at which they form hexamers, differentiation is induced. FIG. 18 is a cartoon depicting the mechanism, supported by experiments described herein, by which NME7 and NME1 function to promote pluripotency wherein NME1 regulates itself.

[1] = molecular target: T1, PSMGFR peptide of the MUC1* extracellular domain (Homo sapiens, UniProt P15941); assay: SPR and nanoparticle binding of NME1 multimers to PSMGFR peptide (FIG. 17); design: the PSMGFR peptide of the MUC1* extracellular domain is immobilized on the chip; settings: for binding to MUC1* extracellular domain peptide (PSMGFR): SPR chip or gold nanoparticles
T1 sequence (P15941 1110-1154 limits assumed): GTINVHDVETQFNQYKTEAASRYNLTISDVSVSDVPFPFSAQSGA
Source text: MUC1* extra cellular domain peptide was immobilized onto gold nanoparticles.
as §1

Human stem cells (iPS) = assay: human iPS stem cell culture in NME7-AB or NM23-H1 dimers; assay type: cell-based; settings: 8 nM in minimal media over MN-C3 surface
Method: Testing recombinant NME7 for ability to maintain pluripotency and inhibit differentiation. A soluble variant of NME7, NME7-AB, was generated and purified. Human stem cells (iPS cat #SC101a-1, System Biosciences) were grown per the manufacturer's directions in 4 ng/ml bFGF over a layer of mouse fibroblast feeder cells for four passages. These source stem cells were then plated into 6-well cell culture plates (Vita™, Thermo Fisher) that had been coated with 12.5 ug/well of a monoclonal anti-MUC1* antibody, MN-C3. Cells were plated at a density of 300,000 cells per well. The base media was Minimal Stem Cell Media consisting of: 400 ml DME/F12/GlutaMAX I (Invitrogen #10565-018), 100 ml Knockout Serum Replacement (KO-SR, Invitrogen #10828-028), 5 ml 100×MEM Non-essential Amino Acid Solution (Invitrogen#11140-050) and 0.9 ml (0.1 mM) β-mercaptoethanol (55 mM stock, Invitrogen #21985-023). The base media can be any media. In a preferred embodiment, the base media is free of other growth factors and cytokines. To the base media was added either 8 nM of NME7-AB or 8 nM NM23-H1 refolded and purified as stable dimers. Media was changed every 48 hours and due to accelerated growth had to be harvested and passaged at Day 3 post-plating. FIGS. 9 and 10 document the day by day comparison of growth in NM23-H1 dimers to growth in NME7 monomers. […] Cell counts at the first harvest verified that culture in NME7 produced 1.4-times more cells than culture in NM23-H1 dimers.

[2] = molecular target: T2, MUC1* extra cellular domain peptide (Homo sapiens, UniProt P15941); assay: gold nanoparticle binding assay, NME7 and MUC1* peptide (FIG. 7); settings: protein added free in solution
T2 sequence (P15941 with tags, fused parts or gaps): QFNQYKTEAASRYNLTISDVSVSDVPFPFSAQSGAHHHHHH
Method: Gold nanoparticles of a diameter of 30.0 nm were coated with an NTA-SAM surface according to Thompson et al. (ACS Appl. Mater. Interfaces, 2011, 3 (8), pp 2979-2987). The NTA-SAM coated gold nanoparticles were then activated with an equal volume of 180 uM NiSO4, incubated for 10 min at room temperature, washed, and resuspended in a 10 mM phosphate buffer ([…]). The gold nanoparticles were then loaded with PSMGER N-10 peptide ([…] (SEQ ID NO:155)) at 0.5 uM final concentration, and incubated at room temperature for 10 min. Recombinant NME7-AB protein expressed and purified from E. coli was added free in solution at the concentrations indicated. When particle-immobilized proteins bind to each other, or simultaneously bind to two different peptides on two different particles, the particle solution color changes from pink/red to purple/blue. If the protein added free in solution causes particle aggregation, it is strong evidence that the free protein dimerizes the cognate peptide, since binding to a single peptide would not induce two or more particles to be brought into close proximity to each other.
The NME7-AB is added free in solution at the concentrations indicated. Solution color change from pink to purple/blue from particle aggregation indicates binding between the MUC1* peptide on the particles and NME7 free in solution. […] Particle aggregation, indicating NME7 can simultaneously bind to two peptides is observed. […] The T47D breast cancer cell line Lysate, which contains native NME7 turns noticeably purple also.

[3] = molecular target: T1, PSMGFR peptide of the MUC1* extracellular domain; assay: ELISA of NME6 binding to PSMGFR peptide (FIG. 19)
Source text: NME6 is also expressed in very early embryogenesis. NME6 is reportedly a dimer in some species such as sea sponge. NME6 must be expressed at high enough levels that it can form dimers before it can activate growth and inhibit differentiation. Thus, it is expressed at a later stage than NME7. […] We made recombinant NME6 as the wild type protein, or with a single point mutation S139G, which mimics the S120G mutation that causes NME1 to prefer dimer formation. In addition, another NME6 variant was made so that in this sensitive area, the human NME6 would look like sea sponge NME6, which reportedly exists as a dimer. These mutations are S139A plus V142D and V143A. […] In part A, NME6-wt is purified as the monomer or as a high molecular weight multimer. […] In part B, the NME6 multimers are dissociated by dilution in SDS. […] The gels of FIG. 19 D-H show expression of NME6-wt (D), NME6 with the S139G mutation that corresponds to the mutation S120G which in human NME1 increases dimer formation (E), NME6 bearing three mutations that make the human form mimic the sea sponge form that is reported to be a dimer (F), and a single chain protein linking two NME6 proteins (G,H). […] Thus an effective anti-cancer agent would be an antibody, small molecule or other agent that disrupts binding of NME6 dimers to MUC1* extra cellular domain peptide. […]

binding to MUC1* extracellular domain peptide (PSMGFR) ([1]; listed as NM23 dimers)	binding to MUC1* extracellular domain peptide (PSMGFR) ([1]; listed as dimer form of NME1)	binding to PSMGFR peptide (ELISA) [3]	binding to PSMGFR peptide (ELISA) ([3]; listed as NME6 monomer)	Substance	pluripotent stem cell growth / differentiation (human stem cells)	binding to N-10 version of the PSMGFR peptide ([1]; first 10 amino acids of PSMGFR omitted)	stem cell growth, pluripotency and differentiation (Human stem cells (iPS))	binding to MUC1* peptide on nanoparticles (color change pink to purple/blue) [2]
bind to the cognate receptor MUC1*	binds to the MUC1* extracellular domain			NME1 dimers: recombinant NME1 (NM23-H1) S120G mutant refolded and purified as stable dimers	promote pluripotent stem cell growth	bind to the N-10 version of the PSMGFR peptide	no differentiation	began to change almost immediately to purple
				NME1 hexamers: recombinant NME1 in hexamer form	induce differentiation			
		binds to the PSMGFR peptide	preferential binding	NME6: recombinant human NME6 wild type protein				
